These are literature values, as cited in publication PMC10385628.

In this series the target is neuropilin-1 (Homo sapiens) (UniProt O14786).
Chain of UniProt O14786 (O14786 22-856): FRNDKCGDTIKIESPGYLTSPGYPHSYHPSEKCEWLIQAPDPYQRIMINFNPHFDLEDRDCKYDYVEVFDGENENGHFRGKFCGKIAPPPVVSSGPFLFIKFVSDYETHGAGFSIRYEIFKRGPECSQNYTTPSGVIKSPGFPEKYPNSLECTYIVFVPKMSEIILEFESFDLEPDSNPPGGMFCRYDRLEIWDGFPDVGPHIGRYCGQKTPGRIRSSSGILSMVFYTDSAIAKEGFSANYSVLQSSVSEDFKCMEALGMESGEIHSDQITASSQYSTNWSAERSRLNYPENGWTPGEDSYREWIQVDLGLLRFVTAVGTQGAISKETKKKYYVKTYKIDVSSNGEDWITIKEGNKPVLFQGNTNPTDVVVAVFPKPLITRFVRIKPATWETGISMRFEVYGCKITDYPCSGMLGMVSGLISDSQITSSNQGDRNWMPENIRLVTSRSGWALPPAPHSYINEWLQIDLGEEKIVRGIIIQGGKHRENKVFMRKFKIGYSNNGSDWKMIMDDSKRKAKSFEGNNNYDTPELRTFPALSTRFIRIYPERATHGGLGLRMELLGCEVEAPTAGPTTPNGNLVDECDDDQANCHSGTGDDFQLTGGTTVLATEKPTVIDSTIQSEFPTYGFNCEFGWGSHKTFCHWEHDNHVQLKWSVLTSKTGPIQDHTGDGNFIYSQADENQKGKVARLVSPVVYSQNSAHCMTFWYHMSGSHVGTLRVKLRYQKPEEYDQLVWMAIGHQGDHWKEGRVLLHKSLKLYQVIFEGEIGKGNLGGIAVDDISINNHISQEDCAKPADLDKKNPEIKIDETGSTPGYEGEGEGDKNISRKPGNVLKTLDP

Turning to KDKPPR peptide, the Kd is 500 nM.

A word on the Kd: it is a measure of binding affinity in units of concentration.
